Laboratory results published in the supplement of paper PMC10201428.
± gives the standard deviation of the averaged measurements.

Key:
[1] = test system: VchCAST RNA-guided transposition machinery (E. coli BL21(DE3) host, lacZ target); test: relative integration efficiency (T-LR orientation) vs wild-type transposon end (log2 (normalized fold change)); transposon end mutated: right end (5 bp flank + 75 bp right end); higher = more efficient transposition
Procedure: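 Pooled, barcoded VchCAST (Tn6677) mini-transposon donor libraries; each variable transposon-end sequence sits in a fixed pDonor mini-transposon context (10-bp barcode and cargo not included). Left- or right-end libraries were co-transformed with pEffector (TniQ-Cascade, TnsABC, lacZ crRNA, T7, 0.1 mM IPTG) into E. coli BL21(DE3) and grown 18 h at 37 C. T-LR and T-RL junction amplicons were sequenced; output/input barcode fold change was normalised to the mean of four wild-type barcodes and log2-transformed. Two biological replicates; zero-count/undetected variants carry floor values (-10 / -15), censored here. Barcode uncoupling by PCR recombination adds noise.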

[2] = test system: VchCAST RNA-guided transposition machinery (E. coli BL21(DE3) host, lacZ target); test: relative integration efficiency (T-RL orientation) vs wild-type transposon end (log2 (normalized fold change)); transposon end mutated: right end (5 bp flank + 75 bp right end); higher = more efficient transposition
Summary of the method: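 In E. coli BL21(DE3), a T7-driven effector plasmid was paired with a pUC57 mini-transposon donor containing 1549 left-end or 1849 right-end barcoded transposon variants. Cells grew on plates with 0.1 mM IPTG at 37°C for 18 h. Relative integration efficiency was derived from Illumina reads of genomic integration junctions against input plasmids, as a log-transformed output/input barcode fold change normalised to reference barcodes.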

| Sequence | relative integration efficiency (log2) [1] | relative integration efficiency (log2) [2] |
| --- | --- | --- |
| ACATTTCTTCATACAACCATAAAATGATAATTACACCCATAAATGGATCATTATCACACCCAATTTAACTATAACGCTCTGATCATAGTCAGACCAACATTGCTACGACCCGTATTCGCACCGACAC | -3.69 ± 0.99 | -4.65 ± 0.36 |
| ACATTTCTTCATACAACCATAAAATGATAATTACACCCATAAATTCATAATTATCACACCCAATTTAACTATAACGCTCTGATCATAGTCAGACCAACATTGCTACGACCCGTATTCGCACCGACAC | -3.54 ± 2.7 | -5.24 ± 0.61 |
| ACATTTCTTCATACAACCATAAAATGATAATTACACCCATAAATTCATCATTATCACACCCAATTTAACTATAACGCTCTGATCATAGTCAGACCAACATTGCTACGACCCGTATTCGCACCGACAC | -3.38 ± 0.49 | -4.8 ± 0.27 |
| ACATTTCTTCATACAACCATAAAATGATAATTACACCCATAAATTGATAATTATCACACCCAATTTAACTATAACGCTCTGATCATAGTCAGACCAACATTGCTACGACCCGTATTCGCACCGACAC | -2.1 ± 0.57 | -3.68 ± 0.52 |
| ACATTTCTTCATACAACCATAAAATGATAATTACACCCATAAATTGATCATTATCACACCCAATTTAACTATAACGCTCTGATCATAGTCAGACCAACATTGCTACGACCCGTATTCGCACCGACAC | -3.3 ± 0.16 | -4.44 ± 0.65 |
| ACATTTCTTGATACAACCATAAAATGATAATTACACCCATAAATGGATAATTATCACACCCAATTTAACTATAACGCTCTGATCATAGTCAGACCAACATTGCTACGACCCGTATTCGCACCGACAC | 0.0926 ± 0.35 | -2 ± 0.23 |
| ACATTTCTTGATACAACCATAAAATGATAATTACACCCATAAATGGATCATTATCACACCCAATTTAACTATAACGCTCTGATCATAGTCAGACCAACATTGCTACGACCCGTATTCGCACCGACAC | 0.00332 ± 0.054 | -2.34 ± 0.22 |
| ACATTTCTTGATACAACCATAAAATGATAATTACACCCATAAATTCATAATTATCACACCCAATTTAACTATAACGCTCTGATCATAGTCAGACCAACATTGCTACGACCCGTATTCGCACCGACAC | -0.103 ± 0.73 | -2.79 ± 0.24 |
| ACATTTCTTGATACAACCATAAAATGATAATTACACCCATAAATTCATCATTATCACACCCAATTTAACTATAACGCTCTGATCATAGTCAGACCAACATTGCTACGACCCGTATTCGCACCGACAC | 0.193 ± 0.077 | -2.84 ± 0.46 |
| ACATTTCTTGATACAACCATAAAATGATAATTACACCCATAAATTGATCATTATCACACCCAATTTAACTATAACGCTCTGATCATAGTCAGACCAACATTGCTACGACCCGTATTCGCACCGACAC | 1.34 ± 0.11 | -1.92 ± 0.52 |
| ACATTTGAAGATACAACCATAAAATGATAATTACACCCATAAATTGATAATTATCACACCCATAAATTGATATTGCCTCTGATCATAGTCAGACCAACATTGCTACGACCCGTATTCGCACCGACAC | -0.786 ± 0.12 | -0.132 ± 0.019 |
| ACATTTGATGATACAACCATATAATGATAATAACACCCATAAAATGATAATTATCACACCCAATTTAACTATAACGCTCTGATCATAGTCAGACCAACATTGCTACGACCCGTATTCGCACCGACAC | 1.073 ± 0.0088 | -1.61 ± 0.26 |
| ACATTTGATGATACTACCATTTAATGATAATAACACCCATAAAATGATAATTATCACACCCAATTTAACTATAACGCTCTGATCATAGTCAGACCAACATTGCTACGACCCGTATTCGCACCGACAC | -0.158 ± 0.16 | -2.14 ± 0.37 |
| ACATTTGATGATAGAACCATTTAATGATAATAACACCCATAAAATGATAATTATCACACCCAATTTAACTATAACGCTCTGATCATAGTCAGACCAACATTGCTACGACCCGTATTCGCACCGACAC | -0.836 ± 0.44 | -2.75 ± 0.52 |
| ACATTTGCTGATACAACCATATAATGATAATAACACCCATAAAATGATAATTATCACACCCAATTTAACTATAACGCTCTGATCATAGTCAGACCAACATTGCTACGACCCGTATTCGCACCGACAC | 0.121 ± 0.33 | -2.08 ± 0.55 |
| ACATTTGCTGATACTACCATATAATGATAATAACACCCATAAAATGATAATTATCACACCCAATTTAACTATAACGCTCTGATCATAGTCAGACCAACATTGCTACGACCCGTATTCGCACCGACAC | -0.422 ± 0.19 | -2.27 ± 0.43 |
| ACATTTGCTGATACTACCATATAATGATAATAACACCCCTAAAATGATAATTATCACACCCAATTTAACTATAACGCTCTGATCATAGTCAGACCAACATTGCTACGACCCGTATTCGCACCGACAC | -2.64 ± 0.76 | -4.12 ± 0.62 |

| Sequence | relative integration efficiency (log2) [1] | relative integration efficiency (log2) [2] |
| --- | --- | --- |
| ACATTTGCTGATACTACCATTTAATGATAATAACACCCATAAAATGATAATTATCACACCCAATTTAACTATAACGCTCTGATCATAGTCAGACCAACATTGCTACGACCCGTATTCGCACCGACAC | -0.487 ± 0.3 | -2.31 ± 0.44 |
| ACATTTGCTGATACTACCATTTAATGATAATAACACCCCTAAAATGATAATTATCACACCCAATTTAACTATAACGCTCTGATCATAGTCAGACCAACATTGCTACGACCCGTATTCGCACCGACAC | -4.07 ± 0.06 | -4.9716 ± 0.0047 |
| ACATTTGCTGATAGAACCATATAATGATAATAACACCAATAAAATGATAATTATCACACCCAATTTAACTATAACGCTCTGATCATAGTCAGACCAACATTGCTACGACCCGTATTCGCACCGACAC | -2.34 ± 0.35 | -3.5 ± 0.17 |
| ACATTTGCTGATAGAACCATATAATGATAATAACACCCATAAAATGATAATTATCACACCCAATTTAACTATAACGCTCTGATCATAGTCAGACCAACATTGCTACGACCCGTATTCGCACCGACAC | -1.38 ± 0.21 | -2.94 ± 0.33 |
| ACATTTGCTGATAGAACCATTTAATGATAATAACACCAATAAAATGATAATTATCACACCCAATTTAACTATAACGCTCTGATCATAGTCAGACCAACATTGCTACGACCCGTATTCGCACCGACAC | -2.93 ± 0.82 | -4.53 ± 0.5 |
| ACATTTGCTGATAGAACCATTTAATGATAATAACACCCATAAAATGATAATTATCACACCCAATTTAACTATAACGCTCTGATCATAGTCAGACCAACATTGCTACGACCCGTATTCGCACCGACAC | -2.38 ± 0.95 | -3.66 ± 0.41 |
| ACATTTGGGGATACAACCATAAAATGATAATTACACCCATAAATTGATAATTATCACACCCATAAATTGATATTGCCTCTGATCATAGTCAGACCAACATTGCTACGACCCGTATTCGCACCGACAC | -5.49 ± 0.94 | -6.43 ± 0.081 |
| ACATTTGGGTCTACAACCATAAAATGATAATTACACCCATAAATTGATAATTATCACACCCATAAATTGATATTGCCTCTGATCATAGTCAGACCAACATTGCTACGACCCGTATTCGCACCGACAC | -4.93 ± 0.96 | -7.19 ± 1.1 |
| ACATTTGGTGATACAACCATATAATGATAATAACACCCATAAAATGATAATTATCACACCCAATTTAACTATAACGCTCTGATCATAGTCAGACCAACATTGCTACGACCCGTATTCGCACCGACAC | -3.69 ± 0.97 | -6.35 ± 0.32 |
| ACATTTGTAAAAAAAACCATACGTTGATTTTACGAAACCATACGCTGAAATAAAAACAACCATACCTTGAAATTGCCTCTGATCATAGTCAGACCAACATTGCTACGACCCGTATTCGCACCGACAC | -4.82 ± 1.9 | -6.84 ± 0.49 |
| ACATTTGTAAAAAAAACCATACGTTGATTTTACGAAACCATACGCTGAAATAAAAACAACCATACCTTGAAATTGCTTATAAAGTGTACAACACTTGAGAAAGTTTACTACAGGTATGCACCGACAC | < -10 | -7.441 ± 0.019 |
| ACATTTGTAAAAAAAACCATACGTTGATTTTACGAAACCATACGCTGAAATAATCACAACCATAAATTGAAATTGCCTCTGATCATAGTCAGACCAACATTGCTACGACCCGTATTCGCACCGACAC | -6.41 ± 1.9 | -6.99 ± 0.21 |
| ACATTTGTAAAAAAAACCATACGTTGATTTTACGAAACCATACGCTGAAATAATCACAACCATAACTTGAAATTGCCTCTGATCATAGTCAGACCAACATTGCTACGACCCGTATTCGCACCGACAC | < -10 | -6.63 ± 1.2 |
| ACATTTGTAAAAAAAACCATACGTTGATTTTACGAAACCATACGCTGAAATAATCACAACCATACATTGAAATTGCCTCTGATCATAGTCAGACCAACATTGCTACGACCCGTATTCGCACCGACAC | -4.99 ± 1 | -6.97 ± 0.31 |
| ACATTTGTAAAAACAACCATAAAATGATAATTACACCCATAAATTGATAATTATCACACCCATAAATTGATATTGCCTCTGATCATAGTCAGACCAACATTGCTACGACCCGTATTCGCACCGACAC | -0.286 ± 0.49 | 0.25 ± 0.023 |
| ACATTTGTAAATAAAACCATACGTTGATTTTACGAAACCATACGCTGAAATAATCACACCCATAAATTGATATTGCCTCTGATCATAGTCAGACCAACATTGCTACGACCCGTATTCGCACCGACAC | -4.7 ± 0.57 | -6.595 ± 0.05 |
| ACATTTGTACATACAACCATAAAATGATAATTACACCCATAAATTGATAATTATCACACCCATAAATTGATATTGCCTCTGATCATAGTCAGACCAACATTGCTACGACCCGTATTCGCACCGACAC | -1.97 ± 0.36 | -0.312 ± 0.12 |
